Test results reported in US11246958B2, “Haemostatic compositions” (HAEMOSTATIX LIMITED, priority 2015, dated 2022).
Where no end group is shown, it is not given here.

What was measured:
[1] = molecular target: T1, purified human fibrinogen (Homo sapiens, UniProt P02675+P02679); test: Copolymerisation of peptide dendrimers with purified human fibrinogen, clotting time on KC4 Delta coagulation analyser; assay type: biochemical; settings: for activity of mixtures of peptide conjugate and peptide dendrimer in copolymerising with fibrinogen: conjugate 2 mg/ml mixed with Peptide Dendrimer No. 3 or 4 at 0.025-0.5 mg/ml
T1 sequence (P02679 27-437 isoform P02679-2 limits assumed): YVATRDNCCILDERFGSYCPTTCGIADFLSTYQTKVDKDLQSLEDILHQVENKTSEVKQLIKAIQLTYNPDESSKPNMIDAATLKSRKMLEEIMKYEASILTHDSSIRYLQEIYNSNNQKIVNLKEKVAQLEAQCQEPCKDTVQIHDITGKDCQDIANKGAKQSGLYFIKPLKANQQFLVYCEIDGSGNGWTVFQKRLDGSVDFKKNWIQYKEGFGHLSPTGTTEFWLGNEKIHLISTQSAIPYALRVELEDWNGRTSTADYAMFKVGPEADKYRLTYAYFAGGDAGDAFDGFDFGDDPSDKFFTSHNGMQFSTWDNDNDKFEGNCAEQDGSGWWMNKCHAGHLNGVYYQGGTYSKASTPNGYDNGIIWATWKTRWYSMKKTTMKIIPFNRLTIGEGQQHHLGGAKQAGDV
T1 sequence (P02675 31-491): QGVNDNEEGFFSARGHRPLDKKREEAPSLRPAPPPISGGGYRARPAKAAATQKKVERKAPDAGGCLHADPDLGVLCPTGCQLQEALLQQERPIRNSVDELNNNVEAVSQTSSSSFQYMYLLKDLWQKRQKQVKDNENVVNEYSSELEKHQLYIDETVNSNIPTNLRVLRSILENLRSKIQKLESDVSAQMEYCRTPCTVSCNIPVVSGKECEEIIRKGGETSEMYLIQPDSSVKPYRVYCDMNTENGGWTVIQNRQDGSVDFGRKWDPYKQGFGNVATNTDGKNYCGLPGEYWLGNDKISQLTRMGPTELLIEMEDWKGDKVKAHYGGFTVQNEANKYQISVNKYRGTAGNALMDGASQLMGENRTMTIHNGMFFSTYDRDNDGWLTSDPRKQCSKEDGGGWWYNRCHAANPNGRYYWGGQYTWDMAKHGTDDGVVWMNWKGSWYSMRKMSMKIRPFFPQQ
T1 sequence (P02671 20-629 partner limits assumed): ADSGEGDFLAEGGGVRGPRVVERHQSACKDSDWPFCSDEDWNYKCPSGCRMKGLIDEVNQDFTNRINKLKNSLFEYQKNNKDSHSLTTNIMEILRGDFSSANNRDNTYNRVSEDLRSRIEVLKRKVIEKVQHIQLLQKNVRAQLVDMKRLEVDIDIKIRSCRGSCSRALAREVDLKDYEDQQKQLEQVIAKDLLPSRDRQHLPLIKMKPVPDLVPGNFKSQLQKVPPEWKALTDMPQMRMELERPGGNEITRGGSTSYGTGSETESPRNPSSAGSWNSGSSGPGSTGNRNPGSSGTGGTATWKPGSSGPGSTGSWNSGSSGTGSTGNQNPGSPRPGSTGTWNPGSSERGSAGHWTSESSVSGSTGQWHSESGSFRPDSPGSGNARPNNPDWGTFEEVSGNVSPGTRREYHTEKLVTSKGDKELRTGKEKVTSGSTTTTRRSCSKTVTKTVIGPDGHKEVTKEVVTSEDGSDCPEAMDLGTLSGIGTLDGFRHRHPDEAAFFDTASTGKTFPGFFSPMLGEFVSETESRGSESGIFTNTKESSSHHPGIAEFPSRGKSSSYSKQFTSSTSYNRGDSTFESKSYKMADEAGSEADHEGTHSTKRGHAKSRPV
Experimental: The ability of Peptide Dendrimer No. 12 to polymerise fibrinogen was assessed. 30 μl of dendrimer in solution, at concentration ranging from 0.005-2 mg/ml, was added to 100 μl purified human fibrinogen at 3 mg/ml (the level of fibrinogen found in the blood). Polymerisation of fibrinogen was analysed using a Sigma Amelung KC4 Delta coagulation analyser.
The ability of Peptide Dendrimer Nos. 4, 5, 10, 11, and 12 to copolymerise with fibrinogen was assessed using the same method described in Example 2. The concentration of each dendrimer was varied from 0.005-0.5 mg/ml.
The ability of the dendrimers to copolymerise with fibrinogen was assessed using the same method described in Example 2, for a concentration of each dendrimer ranging from 0.005-0.5 mg/ml.
Peptide Conjugate No. 1 or 2 (2 mg/ml) was mixed with Peptide Dendrimer No. 3 or 4, and fibrinogen, and the ability of the mixtures to copolymerise with fibrinogen was assessed using the same method described in Example 2, for a concentration of each dendrimer ranging from 0.025-0.5 mg/ml.

[2] = molecular target: T2, fibrinogen in human plasma (Homo sapiens, UniProt P02675+P02679); test: Polymerisation of fibrinogen in human plasma by peptide dendrimers; assay type: biochemical; settings: 30 μL dendrimer 0.25 mg/ml in 100 μL human plasma, 37° C.
T2 construct: from tissue; host or cells: human plasma
T2 sequence (P02679 27-437 isoform P02679-2 limits assumed): T1 sequence (P02679 27-437 isoform P02679-2 limits assumed)
T2 sequence (P02675 31-491): T1 sequence (P02675 31-491)
T2 sequence (P02671 20-629 partner limits assumed): T1 sequence (P02671 20-629 partner limits assumed)
Experimental: 30 μL of each dendrimer (at a concentration of 0.25 mg/ml) was added to 100 μL human plasma at 37° C., and polymerisation of fibrinogen was determined using a Sigma Amelung KC4 Delta coagulation analyzer.

| Substance | activity of mixtures of peptide conjugate and peptide dendrimer in copolymerising with fibrinogen [1] | ability to copolymerise with fibrinogen ([1]; dendrimer 0.005-0.5 mg/ml, fibrinogen 3 mg/ml) | ability to polymerise fibrinogen in human plasma [2] |
| --- | --- | --- | --- |
| Peptide Conjugate No. 1: two GPRP fibrinogen-binding peptides each attached by a linker to a lysine residue, second attached by amino-terminal end and amidated (peptide 2 GPRP-NH2; also: each GPRP attached by a linker to a lysine residue, second attached by amino-terminal end) | not active |  |  |
| Peptide Conjugate No. 2: GHRPY peptide and reverse sequence YPRHG (amidated), each attached by a linker to a lysine residue (peptide 2 YPRHG-NH2; also: each peptide attached by a linker to a lysine residue) | synergistic and increased activity |  |  |
| Peptide Dendrimer No. 9: three-branch dendrimer, two GPRPFPA peptides and one APFPRPG attached by its amino-terminal end, carboxy-terminal amide (chain 2 APFPRPG-NH2; not fully specified; also: three-branch dendrimer: two GPRPFPA and one APFPRPG attached by amino-terminal end; listed as Homo sapiens) |  | very active in copolymerising with fibrinogen | not able to polymerise fibrinogen in human plasma |
